Measured values: publication PMC5868747
Where two headings read alike, the source gives them in different places.

Legend:
Myc-RTA (IVT) [1] = molecular target: T1, Myc-RTA (IVT) (Kaposi's sarcoma-associated herpesvirus …, UniProt F5HCV3 1-691); assay: EMSA
Myc-RTA (IVT) [2] = molecular target: T1, Myc-RTA (IVT); assay: EMSA; remark: listed apart in the source

T1 sequence (F5HCV3 whole entry): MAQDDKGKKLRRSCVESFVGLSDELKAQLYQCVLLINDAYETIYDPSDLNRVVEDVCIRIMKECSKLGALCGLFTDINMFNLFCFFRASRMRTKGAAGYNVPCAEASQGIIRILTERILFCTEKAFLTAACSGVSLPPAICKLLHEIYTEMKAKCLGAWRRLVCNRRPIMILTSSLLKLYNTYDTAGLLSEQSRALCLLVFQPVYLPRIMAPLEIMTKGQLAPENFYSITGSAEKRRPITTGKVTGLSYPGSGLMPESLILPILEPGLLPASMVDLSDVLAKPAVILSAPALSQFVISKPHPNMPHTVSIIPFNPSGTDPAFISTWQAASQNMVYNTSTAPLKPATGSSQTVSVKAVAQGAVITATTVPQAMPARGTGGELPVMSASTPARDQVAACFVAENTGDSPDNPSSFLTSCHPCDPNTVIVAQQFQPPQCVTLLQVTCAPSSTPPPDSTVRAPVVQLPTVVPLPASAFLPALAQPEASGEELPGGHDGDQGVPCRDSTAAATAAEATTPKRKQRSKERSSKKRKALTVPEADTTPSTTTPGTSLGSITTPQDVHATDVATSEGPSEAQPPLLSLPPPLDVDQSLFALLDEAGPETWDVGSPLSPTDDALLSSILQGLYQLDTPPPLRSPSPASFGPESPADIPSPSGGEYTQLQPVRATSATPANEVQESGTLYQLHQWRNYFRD

Binder	binding result (Myc-RTA (IVT) [1])	binding result (Myc-RTA (IVT) [2])
59pF (minimal RRE) (dsDNA) DNA 1: CGATTTGTGAAGGTTAACCTGTCCATG DNA 2: CATGGACAGGTTAACCTTCACAAATCG	binds	
59pA (dsDNA) DNA 1: ACACCACGTGTGTGACTGACGATTTGTGAAGGTTAACCTGTCCATGTCGC DNA 2: GCGACATGGACAGGTTAACCTTCACAAATCGTCAGTCACACACGTGGTGT		binds
